Measured values taken from the supplement of paper PMC11246515.
± gives the standard deviation of the averaged measurements.

Assay: total protein half-life in vivo (active degradation + dilution); higher = more stable protein
[1] = E. coli NCM3722 delta-clpP delta-lon delta-hslV, growth: N-lim chemostat, doubling time 6 h
[2] = E. coli NCM3722 delta-clpP, growth: N-lim chemostat, doubling time 6 h
[3] = E. coli NCM3722 delta-hslV, growth: N-lim chemostat, doubling time 6 h
[4] = E. coli NCM3722 delta-lon, growth: N-lim chemostat, doubling time 6 h
[5] = E. coli NCM3722 delta-smpB, growth: N-lim chemostat, doubling time 6 h
[6] = wild type E. coli NCM3722, growth: C-lim chemostat, doubling time 3 h
[7] = wild type E. coli NCM3722, growth: C-lim chemostat, doubling time 12 h
[8] = wild type E. coli NCM3722, growth: N-lim chemostat, doubling time 6 h
[9] = wild type E. coli NCM3722, growth: N-lim chemostat, doubling time 12 h
[10] = wild type E. coli NCM3722, growth: P-lim chemostat, doubling time 6 h
[11] = wild type E. coli NCM3722, growth: P-lim chemostat, doubling time 12 h
[12] = wild type E. coli NCM3722, growth: C-lim chemostat, doubling time 6 h

With “MTYQQAGRIAVLKRILGWVIFIPALISTLISLLKFMNTRQENKEGINAVMLDFTHVMIDMMQANTPFLNLFWYNSPTPNFNGGVNVMFWVIFILIFVGLALQDSGARMSRQARFLREGVEDQLILEKAKGEEGLTREQIESRIVVPHHTIFLQFFSLYILPVICIAAGYVFFSLLGFI” the “total protein half-life in vivo” value [1] was 5.41 ± 0.081 h, the “total protein half-life in vivo” value [2] was 5.2 ± 0.35 h and the “total protein half-life in vivo” value [3] was 5.42 ± 0.091 h. The “total protein half-life in vivo” value [4] was 5.94 h, the “total protein half-life in vivo” value [5] was 6.11 ± 1.1 h and the “total protein half-life in vivo” value [6] was 2.86 ± 0.074 h. For the same sequence, the “total protein half-life in vivo” value [7] was 13.5 ± 0.8 h, the “total protein half-life in vivo” value [8] was 5.62 ± 0.27 h and the “total protein half-life in vivo” value [9] was 9.96 ± 2.3 h. For the same sequence, the “total protein half-life in vivo” value [10] was 5.46 ± 0.11 h and the “total protein half-life in vivo” value [11] was 12 ± 0.18 h.
For “MFNGRPFPVDAFPKIIRNAIYEVEQHTQAPQGLIAASALGVISLACQNRIDVCRLNNLRGPVSLFLMTLAESGERKSTVDKLLMKPLYQLEEDLFEKYTHDLTAWRNDEAIFNIEKKALMSKLKSDIRRNKDHLATNERLKELLTTNPKAPVRFKFLFNDATPAAIKAHLCGHWRSVGIMSDEAGIIFNGYTLNELPFINKMWDGSIFTVERKNEPEKLIRDARITLSLMVQPNVFKGYIDRKGDMAKGIGFFARCLMCQPASTQGNRKISNPIFSNEHLPVFHQRLMEIVNESIIKINENNRICLRFSAEAERHWIEFYNQVESEMRMIGLLYDFKDYASKMAENMARLAALLHYFSGDGGDISVTAVKAAVEIVAWYIEEYIRLFSKKEEFSLDVSEADELYCWIKDYCTQKFSSCIKKNIILQFGPNKFRNRDKANELIRILISQNKIFISSWGKTKIINITHCVF”, the “total protein half-life in vivo” value [1] was 4.5 h.
For “MIEKLRNIAIIAHVDHGKTTLVDKLLQQSGTFDSRAETQERVMDSNDLEKERGITILAKNTAIKWNDYRINIVDTPGHADFGGEVERVMSMVDSVLLVVDAFDGPMPQTRFVTKKAFAYGLKPIVVINKVDRPGARPDWVVDQVFDLFVNLDATDEQLDFPIVYASALNGIAGLDHEDMAEDMTPLYQAIVDHVPAPDVDLDGPFQMQISQLDYNSYVGVIGIGRIKRGKVKPNQQVTIIDSEGKTRNAKVGKVLGHLGLERIETDLAEAGDIVAITGLGELNISDTVCDTQNVEALPALSVDEPTVSMFFCVNTSPFCGKEGKFVTSRQILDRLNKELVHNVALRVEETEDADAFRVSGRGELHLSVLIENMRREGFELAVSRPKVIFREIDGRKQEPYENVTLDVEEQHQGSVMQALGERKGDLKNMNPDGKGRVRLDYVIPSRGLIGFRSEFMTMTSGTGLLYSTFSHYDDVRPGEVGQRQNGVLISNGQGKAVAFALFGLQDRGKLFLGHGAEVYEGQIIGIHSRSNDLTVNCLTGKKLTNMRASGTDEAVVLVPPIRMTLEQALEFIDDDELVEVTPTSIRIRKRHLTENDRRRANRAPKDD”, the “total protein half-life in vivo” value [1] was 5.32 ± 0.47 h, the “total protein half-life in vivo” value [2] was 4.79 ± 0.39 h and the “total protein half-life in vivo” value [3] was 4.54 ± 0.41 h. For the same sequence, the “total protein half-life in vivo” value [4] was 5.61 ± 0.38 h, the “total protein half-life in vivo” value [5] was 4.62 ± 0.21 h and the “total protein half-life in vivo” value [6] was 2.899 ± 0.022 h. For the same sequence, the “total protein half-life in vivo” value [12] was 5.8018 ± 0.005 h, the “total protein half-life in vivo” value [7] was 9.75 ± 0.82 h and the “total protein half-life in vivo” value [8] was 4.387 ± 0.029 h. The “total protein half-life in vivo” value [9] was 6.89 ± 0.16 h, the “total protein half-life in vivo” value [10] was 5.58 ± 0.15 h and the “total protein half-life in vivo” value [11] was 10.9 ± 0.83 h.
In the case of “MESLLTLPLAGEARVRILQITDTHLFAQKHEALLGVNTWESYQAVLEAIRPHQHEFDLIVATGDLAQDQSSAAYQHFAEGIASFRAPCVWLPGNHDFQPAMYSALQDAGISPAKRVFIGEQWQILLLDSQVFGVPHGELSEFQLEWLERKLADAPERHTLLLLHHHPLPAGCSWLDQHSLRNAGELDTVLAKFPHVKYLLCGHIHQELDLDWNGRRLLATPSTCVQFKPHCSNFTLDTIAPGWRTLELHADGTLTTEVHRLADTRFQPDTASEGY [P0AEW4]”, the “total protein half-life in vivo” value [1] is reported as 5.15 ± 0.77 h, the “total protein half-life in vivo” value [2] is reported as 4.65 ± 0.26 h and the “total protein half-life in vivo” value [3] is reported as 4.6 ± 0.28 h. For the same sequence, the “total protein half-life in vivo” value [4] was 4.98 ± 0.096 h, the “total protein half-life in vivo” value [5] was 4.34 ± 0.65 h and the “total protein half-life in vivo” value [6] was 2.948 ± 0.017 h. The “total protein half-life in vivo” value [12] was 5.4 ± 0.74 h, the “total protein half-life in vivo” value [7] was 11.6 ± 1.3 h and the “total protein half-life in vivo” value [8] was 4.56 ± 0.88 h. The “total protein half-life in vivo” value [9] was 8.5 ± 0.45 h, the “total protein half-life in vivo” value [10] was 4.435 ± 0.035 h and the “total protein half-life in vivo” value [11] was 8.69 ± 0.43 h.
For “MSTPRQILAAIFDMDGLLIDSEPLWDRAELDVMASLGVDISRRNELPDTLGLRIDMVVDLWYARQPWNGPSRQEVVERVIARAISLVEETRPLLPGVREAVALCKEQGLLVGLASASPLHMLEKVLTMFDLRDSFDALASAEKLPYSKPHPQVYLDCAAKLGVDPLTCVALEDSVNGMIASKAARMRSIVVPAPEAQNDPRFVLADVKLSSLTELTAKDLLG”, the “total protein half-life in vivo” value [1] was 4.76 ± 0.9 h, the “total protein half-life in vivo” value [2] was 5.14 ± 0.84 h and the “total protein half-life in vivo” value [3] was 4.544 ± 0.045 h. For the same sequence, the “total protein half-life in vivo” value [4] was 5.444 ± 0.011 h, the “total protein half-life in vivo” value [5] was 4.27 ± 0.18 h and the “total protein half-life in vivo” value [6] was 2.99 ± 0.3 h. For the same sequence, the “total protein half-life in vivo” value [12] was 5.48 ± 0.35 h, the “total protein half-life in vivo” value [7] was 12.1 ± 3 h and the “total protein half-life in vivo” value [8] was 4.47 ± 0.14 h. The “total protein half-life in vivo” value [9] was 8.91 ± 1.3 h, the “total protein half-life in vivo” value [10] was 5.65 ± 0.52 h and the “total protein half-life in vivo” value [11] was 12.3 ± 0.28 h.
For “MKYQQLENLESGWKWKYLVKKHREGELITRYIEASAAQEAVDVLLSLENEPVLVNGWIDKHMNPELVNRMKQTIRARRKRHFNAEHQHTRKKSIDLEFIVWQRLAGLAQRRGKTLSETIVQLIEDAENKEKYANKMSSLKQDLQALLGKE [P0A8N0]”, the “total protein half-life in vivo” value [2] was 5.544 ± 0.014 h, the “total protein half-life in vivo” value [3] was 4.69 ± 0.85 h and the “total protein half-life in vivo” value [4] was 5.46 ± 0.53 h. For the same sequence, the “total protein half-life in vivo” value [5] was 4.27 ± 1.1 h, the “total protein half-life in vivo” value [6] was 3.13 ± 0.038 h and the “total protein half-life in vivo” value [12] was 5.74 ± 0.2 h. For the same sequence, the “total protein half-life in vivo” value [7] was 10.9 ± 5.6 h, the “total protein half-life in vivo” value [8] was 3.21 ± 1.6 h and the “total protein half-life in vivo” value [9] was 10.7 ± 5.8 h. The “total protein half-life in vivo” value [11] was 9.592 ± 0.066 h.
In the case of “MTMPTNQCPWRMQVHHITQETPDVWTISLICHDYYPYRAGQYALVSVRNSAETLRAYTISSTPGVSEYITLTVRRIDDGVGSQWLTRDVKRGDYLWLSDAMGEFTCDDKAEDKFLLLAAGCGVTPIMSMRRWLAKNRPQADVRVIYNVRTPQDVIFADEWRNYPVTLVAENNVTEGFIAGRLTRELLAGVPDLASRTVMTCGPAPYMDWVEQEVKALGVTRFFKEKFFTPVAEAATSGLKFTKLQPAREFYAPVGTTLLEALESNNVPVVAACRAGVCGCCKTKVVSGEYTVSSTMTLTDAEIAEGYVLACSCHPQGDLVLA”, the “total protein half-life in vivo” value [1] is reported as 3.27 ± 0.63 h.
